target: T1, HLA-B*07:02 (human); experiment: UV-ligand exchange, anti-b2m ELISA; exchange yield grade (+ >10%, ++ >20%, +++ >50, ++++ >75%)
T1 construct: Peptide-receptive MHC monomer made by UV cleavage of a UV-sensitive peptide
Method in brief: (§1)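 Absorbance at 450 nm after HRP anti-β2m detection gives the yield of UV-mediated ligand exchange, quantified against HLA-A*02:01/MLA-001 monomer standards. Only peptides that bind and stabilise peptide-receptive MHC keep the complex intact after UV cleavage of the conditional ligand.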

peptide exchange yield [%]	Binder
50 to 75	VPSLQRLML
20 to 50	RPAVGHSGL
20 to 50	LPDGSRVEL
50 to 75	LPALPQQLI
20 to 50	MPMISIPRV
20 to 50	RPASSLRP
50 to 75	TPIAKVSEL
20 to 50	YPSEVEHMF
20 to 50	APSGTRVVQVL
20 to 50	IPTDKLLVI
50 to 75	KPAHYPLIAL
20 to 50	SPLRGGSSL
20 to 50	FPTEVTPHAF
20 to 50	HPIETLVDIF
20 to 50	MVPSAGQLALF
50 to 75	SPMWHVQQL
50 to 75	APKLFAVAF
20 to 50	ISTPSEVSTPL
20 to 50	HDPDVGSNSL

target: T2, HLA-A*02:01 (human); experiment: as above
T2 construct: Peptide-receptive MHC monomer made by UV cleavage of a UV-sensitive peptide
Method in brief: as §1

peptide exchange yield [%]	Binder
> 75	ALFPERITV
50 to 75	YQDSWFQQL
20 to 50	SQTGFVVLV
50 to 75	RLWQIQHHL
> 75	VLITGLPLI
50 to 75	KLLDEVTYL
50 to 75	RLASRPLLL
50 to 75	KIDDIWNLEV
50 to 75	LLMTSLTES
> 75	RLFGLFLNNV
> 75	VMLNSNVLL
> 75	FLNQIYTQL
> 75	GLTGVIMTI
50 to 75	YVSSGEMMV
> 75	GLPDFVKEL
50 to 75	SLQDTKITL
> 75	YLLPSVVLL
> 75	KLHEIYIQA
50 to 75	ELMPRVYTL
50 to 75	ALAAELNQL
> 75	YLPPTDPRMSV
> 75	KMMALVAEL
> 75	GLMTIVTSL
10 to 20	KMILKMVQL

target: T3, HLA-A*24:02 (human); experiment: as above
T3 construct: Peptide-receptive MHC monomer made by UV cleavage of a UV-sensitive peptide
Method in brief: as §1

peptide exchange yield [%]	Binder
10 to 20	RQYLAINQI
50 to 75	KFLDSNIKF
50 to 75	MYAKEFDLL
50 to 75	EYNNIQHLF
10 to 20	LVLDYSKDYNHW
> 75	IFINLSPEF
50 to 75	VYGDGHYLTF
50 to 75	SYTKVEARL
20 to 50	KLYGMPTDFGF
10 to 20	SFDSNLLSF
20 to 50	TYLTGRQF
20 to 50	VFLNQIYTQL
50 to 75	SYIEKVRFL
50 to 75	TFQDKTLNF
> 75	KYLSLSNSF
> 75	KYLSIPTVF
> 75	KYLSIPAVF
50 to 75	TYISKTIAL
50 to 75	VWAKILSAF
> 75	KYLSIPAVFF
20 to 50	YFEEAANFL
> 75	NFLPPIIARF
> 75	IYGPKYIHPSF
50 to 75	VIAPIISNF
> 75	PYASLASELF

From patent US20180291082A1 (IMMATICS BIOTECHNOLOGIES, published 2018)
